In patent US20240108707A1, “CHAGAS DISEASE VACCINE ANTIGENS WITH IMPROVED STABILITY AND DECREASED AGGREGATION” (Baylor College of Medicine, priority 2019, published 2024):
Where two headings read alike, the source gives them in different places.

B1: TSA-1-C4: Recombinant T. cruzi TSA-1 fragment, four cysteines mutated to serine (C248S, C267S, C360S, C447S), plus 43 C-terminal amino acids (protein)
chain: MERNSGDLQLPQEIAMLVPNKTQVVPKSGGEGKVKDIFASPALVRAGGVMIAFVEGRTKNKLFPEVIDLSSSDIVAGYIKAPETWQSLVAEVTKEYWQAHTVLESANNSNHRVGVARLPTGITRGNKVFLLVGSYEERREIDDYIWKAEAWNIKVIEGEATQSTEVQPTQPINWSEPKPLFQTDSPNNKGDLKEFLGGGGSGIVMGNGTLVFPLTAKDESNKVFSLITYSTDDGQKWEIPGGVSSVASRSPRVTEWEEGTLLMVTYSEDGRKVFESRDMGKTWTEAFGTLPGVWLKSGPELPEVSLRVDALITATIEGRKVMLYTQKVRHFLEVDEPNALHLWVTDNNRTFHLGPFSVDSAENKTFANTLLYSDDALHLLQAKGDHESTAVSLARLTEELNTINSVLSTWVQLDASFSESSIPTAGLVGFLSNTTSSGDTWIDGYRSMNATVTKAAKVENGFKFTGPGSRATWPVNSRWDIKQYGFVDYNFTIVAMATIHQVPSESTPLLGASLRGNKRTKLIGLSYGAGGKWETVYDGTKTVQGGTWEPGREYQVALMLQDGNKGFVYVDGVLVGNPAMLPTPEERWTEFSHFYFGGDEGDSGSDATLTDVFLYNRPLSVGELKMIKEVED
modifications: synthetic recombinant protein based on TSA1 from T. cruzi
notes: Recombinant T. cruzi TSA-1 fragment, four cysteines mutated to serine (C248S, C267S, C360S, C447S), plus 43 C-terminal amino acids
B2: Tc24-C4: Recombinant T. cruzi Tc24 with 4 cysteine residues mutated to serine residues (protein)
chain: MGASGSKGSTSDKGLASDKDGKNAKDRKEAWERIRQAIPREKTAEAKQRRIELFKKFDKNETGKLSYDEVHSGSLEVLKLDEFTPRVRDITKRAFDKARALGSKLENKGSEDFVEFLEFRLMLSYIYDFFELTVMFDEIDASGNMLVDEEELKRAVPKLEAWGAKVEDPAALFKELDKNGTGSVTFDEFAAWASAVKLDADGDPDNVPESA
modifications: synthetic recombinant protein based on TSA1 from T. cruzi
notes: Recombinant T. cruzi Tc24 with 4 cysteine residues mutated to serine residues

Assays:
[1] = Solubility of recombinant protein expressed in E. coli BL21(DE3) (SDS-PAGE of soluble fraction and inclusion bodies; 8M urea); format: physicochemical; details: for solubility of protein as expressed in E. coli: E. coli BL21(DE3), induced with 0.5 mM IPTG
Description: FIGS. 3A and B. SDS-PAGE of expressed wild-type TSA-1-NT in E. coli BL21(DE3) induced with 0.5 mM IPTG from 0-16 hours.
FIGS. 6A and B. SDS-PAGE of expressed TSA-1-C4 in E. coli BL21(DE3) induced with 0.5 mM IPTG over 16 hours.
(§1) In order to develop as a recombinant protein vaccine that can be used in humans in endemic areas, the coding DNA for TSA-1-NT was identified and codon optimized for expression in E. coli. The synthesized DNA was cloned into pET41a, a bacterial expression vector with an IPTG inducible T7 promoter. The recombinant TSA-1-NT/pET41a plasmid DNA was transformed into E. coli BL21(DE3). […] The on-column refolded TSA-1-NT was soluble but aggregated when stored at 4° C. one month (FIG. 4C). Aggregation causes problems with reproducibility and consistency, and would prevent the protein from being developed into a vaccine formulation. We hypothesized that the reason for the aggregation was the interaction of four cysteine residues in the sequence of the molecule (C248, C267, C360, C447) that could lead to intermolecular disulfide bridges.
The coding DNA for TSA-1-C4 (SEQ ID NO: 5) was codon optimized for expression in E. coli, synthesized by GenScript, and cloned into pET41a with an octahistidine-tag (SEQ ID NO: 11, HHHHHHHH, shaded in FIG. 5A) or without an octahistidine-tag (SEQ ID NO: 3, FIG. 2 and FIG. 5B) expressed at its C-terminus. The recombinant plasmid DNAs were transformed into E. coli BL21(DE3) and selected on LB agar plates containing 30 μg/mL of kanamycin. The correct sequences and reading frames were confirmed by double-strand DNA sequencing with vector flanking primers.

[2] = Aggregation / stability of on-column refolded protein on storage, stirring and freeze-thaw (visual analysis, SDS-PAGE, Western blot); format: physicochemical; details: for aggregation of on-column refolded protein on storage: stored at 4° C. one month, SDS-PAGE (TSA-1-C4: in PBS, also visual analysis, Western blot)
Description: FIG. 4A-C. On-column refolding of TSA-1-NT. A, chromatographic profile of TSA-1-NT refolded by Size Exclusion Chromatography; B, samples were collected and analyzed by SDS-PAGE under non-reducing condition aggregates (a), and refolded protein (b and c); C, refolded TSA1-NT (b) after one month at 4° C. under reducing (lanes 1,3) and non-reducing conditions (lane 2).
FIGS. 10A, B and C. SDS-PAGE analysis of refolded TSA-1 C4 by Size-Exclusion Chromatography. A, the collected fractions of the main peak of seven consecutive refolding batches of denatured TSA-1 C4 (in 1.6×100 XK column packed with 185 ml of Sepharose 6FF) were analyzed by 10% SDS-PAGE under non-reducing conditions; batch1 (Lanes 2 and 3), batch 2 (Lanes 4 and 5), batch 3 (Lanes 6 and 7), batch 4 (Lanes 8 and 9), batch 5 (Lanes 10 and 11), batch 6 (Lanes 12 and 13), batch 7 (Lanes 14 and 15). B, Refolded TSA-1-C4 was stored at 4° C. in refolding buffer (lanes 1,4), Tris-HCl (lanes 2 and 5) and PBS (lanes 3 and 6) buffers. Samples were analyzed by SDS-PAGE under non-reduced conditions before (lanes 1, 2 and 3) and after one month (lanes 4, 5 and 6) of storage at 4° C. C, the stability of refolded TSA-1-C4 was tested by orbital stirring at 25 rpm and 20° C. for 24 (lane 2), 48 (lane 3) and 120 h (lane 4), and by cycles of freezing (−80° C.)-thawing at 24 h (lane 5), 48 (lane6) and (lane 7). Molecular Weight marker (lane 1).
as §1
However, and more importantly, and unlike TSA-1 NT, after purification on a nickel column or ion-exchange chromatography (FIGS. 8A and B) and refolding on a size-exclusion column (FIGS. 9A and B). The refolded TSA-1-C4 was concentrated by ultrafiltration, analyzed by SDS-PAGE (FIG. 10A) and it was stable.

T. cruzi [3] = details: mice; cited from earlier work
H1 Trypanosoma cruzi = assay: Therapeutic vaccine efficacy: parasitemia in H1 Trypanosoma cruzi-infected mice; format: in vivo; details: 20 μg antigen IM, acute infection, compared to untreated controls
Description: FIGS. 11A and B. Therapeutic effect of TSA-1-C4 alone or with Tc24-C4 and in a combination with or without benznidazole (BZN) treatment. H1 Trypanosoma cruzi-infected mice were treated with Tc24-C4 and TSA-1-C4, […] and given orally 25 mg/kg BZN per day for 20 days. A, Kinetic parasitemia was recorded each 3 days during the acute infection. Standard bars represent the error of the mean. B, Area under the curve (AUC) was graphed using the simple method of Gagnon. Histograms represent the mean and standard bars the error of the mean.
Briefly, H1 Trypanosoma cruzi-infected mice were treated with Tc24-C4 and TSA-1-C4, 20 μg each and given orally 25 mg/kg BZN per day for 20 days. Kinetic parasitemia was recorded each 3 days during the acute infection (FIG. 11A), and the area under the curve (AUC) was graphed (FIG. 11B).

[4] = cited from earlier work
T. cruzi [5] = details: formulated with E6020-SE; versus Tc24+E6020-SE; cited from earlier work

| Molecule | solubility in 8M urea [1] | solubility of protein as expressed in E. coli [1] | aggregation of on-column refolded protein on storage [2] | aggregation when compounded into vaccine compositions ([2]; vaccine compositions) | protective immunity (T. cruzi [3]) | aggregation under stirring ([2]; after 120 h under orbital stirring, 25 rpm, 20° C.) | aggregation after cycles of freezing-thawing ([2]; freezing (−80° C.)-thawing at 24, 48 and 120 h) | levels of parasites in the blood (parasitemia, AUC) (H1 Trypanosoma cruzi) | solubility of protein as expressed in E. coli ([4]; E. coli (BL21)) | aggregation on storage ([4]; purified protein stored at 4° C. for 9 days, Western blot, light-scattering, HPLC-RP) | protection (mouse survival rate and parasitemia levels in blood) (T. cruzi [5]) |
| --- | --- | --- | --- | --- | --- | --- | --- | --- | --- | --- | --- |
| TSA-1-NT: N-terminal fragment of TSA-1 (aa 30-617), wild-type cysteines [reference compound] | soluble in 8M urea | expressed as insoluble protein in inclusion body | aggregated | aggregates | induces protective immunity |  |  |  |  |  |  |
| B1 | soluble in 8M urea | expressed as insoluble protein in inclusion bodies | No aggregation observed |  |  | No aggregation observed | No aggregation observed | significantly lower levels of parasites in the blood |  |  |  |
| B2 |  |  |  |  |  |  |  |  | soluble protein | did not form any aggregation | similarly protected |
